Results: publication PMC6131520

Biological target: 3D8 IgG-N434D mutant (mouse | human)
Sequence (heavy, as listed by the source, chain 1 of 2): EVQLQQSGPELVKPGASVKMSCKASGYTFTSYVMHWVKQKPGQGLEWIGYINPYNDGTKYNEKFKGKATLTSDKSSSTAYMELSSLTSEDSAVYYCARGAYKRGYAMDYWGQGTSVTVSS
Sequence (light, as listed by the source, chain 2 of 2): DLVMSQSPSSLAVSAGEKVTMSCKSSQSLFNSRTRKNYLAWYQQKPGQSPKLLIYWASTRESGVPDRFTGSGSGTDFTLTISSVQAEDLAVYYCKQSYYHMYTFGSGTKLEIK

secretion of IL-8 and TNF-α by THP-1 cells treated with 5 μM IgG for 6 h (ELISA), against cells treated with wt 3D8 IgG: 40 % higher
Substance: tripartite motif-containing 21 (TRIM21) (from UniProt P19474 1-475) (natural protein)
